According to patent publication US20240279288A1 (ANYANG INSTITUTE OF SINO COTTON INDUSTRY INNOVATION, published 2024):

Tests used:
NMYC = target: T1, NMYC (human, UniProt P04198 1-464); assay: yeast two hybrid
T1 construct: In pGADT7 (AD fusion) for yeast two hybrid
T1 sequence (looked up): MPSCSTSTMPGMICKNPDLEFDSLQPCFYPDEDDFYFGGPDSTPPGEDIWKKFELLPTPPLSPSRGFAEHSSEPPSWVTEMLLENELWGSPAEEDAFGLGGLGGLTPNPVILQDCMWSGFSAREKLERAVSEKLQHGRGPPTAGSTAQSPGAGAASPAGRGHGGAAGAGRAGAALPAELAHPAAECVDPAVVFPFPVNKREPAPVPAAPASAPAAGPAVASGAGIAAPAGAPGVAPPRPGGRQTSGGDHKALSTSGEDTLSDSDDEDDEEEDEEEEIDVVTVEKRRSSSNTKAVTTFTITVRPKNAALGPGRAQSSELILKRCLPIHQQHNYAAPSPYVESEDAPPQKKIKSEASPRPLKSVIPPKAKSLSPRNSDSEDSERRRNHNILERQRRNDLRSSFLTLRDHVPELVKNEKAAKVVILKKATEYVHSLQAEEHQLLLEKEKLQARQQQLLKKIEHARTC

uPAR-D1D2 = target: T2, uPAR-D1D2 (Homo sapiens (Human), UniProt Q03405 23-335, limits assumed); assay: yeast two hybrid
T2 construct: It is tied to 'D3 domain deficient uPAR' by its name only; also called D3 domain deficient uPAR

GhTPL = target: T3, GhTPL (cotton); assay: yeast two hybrid
T3 chain: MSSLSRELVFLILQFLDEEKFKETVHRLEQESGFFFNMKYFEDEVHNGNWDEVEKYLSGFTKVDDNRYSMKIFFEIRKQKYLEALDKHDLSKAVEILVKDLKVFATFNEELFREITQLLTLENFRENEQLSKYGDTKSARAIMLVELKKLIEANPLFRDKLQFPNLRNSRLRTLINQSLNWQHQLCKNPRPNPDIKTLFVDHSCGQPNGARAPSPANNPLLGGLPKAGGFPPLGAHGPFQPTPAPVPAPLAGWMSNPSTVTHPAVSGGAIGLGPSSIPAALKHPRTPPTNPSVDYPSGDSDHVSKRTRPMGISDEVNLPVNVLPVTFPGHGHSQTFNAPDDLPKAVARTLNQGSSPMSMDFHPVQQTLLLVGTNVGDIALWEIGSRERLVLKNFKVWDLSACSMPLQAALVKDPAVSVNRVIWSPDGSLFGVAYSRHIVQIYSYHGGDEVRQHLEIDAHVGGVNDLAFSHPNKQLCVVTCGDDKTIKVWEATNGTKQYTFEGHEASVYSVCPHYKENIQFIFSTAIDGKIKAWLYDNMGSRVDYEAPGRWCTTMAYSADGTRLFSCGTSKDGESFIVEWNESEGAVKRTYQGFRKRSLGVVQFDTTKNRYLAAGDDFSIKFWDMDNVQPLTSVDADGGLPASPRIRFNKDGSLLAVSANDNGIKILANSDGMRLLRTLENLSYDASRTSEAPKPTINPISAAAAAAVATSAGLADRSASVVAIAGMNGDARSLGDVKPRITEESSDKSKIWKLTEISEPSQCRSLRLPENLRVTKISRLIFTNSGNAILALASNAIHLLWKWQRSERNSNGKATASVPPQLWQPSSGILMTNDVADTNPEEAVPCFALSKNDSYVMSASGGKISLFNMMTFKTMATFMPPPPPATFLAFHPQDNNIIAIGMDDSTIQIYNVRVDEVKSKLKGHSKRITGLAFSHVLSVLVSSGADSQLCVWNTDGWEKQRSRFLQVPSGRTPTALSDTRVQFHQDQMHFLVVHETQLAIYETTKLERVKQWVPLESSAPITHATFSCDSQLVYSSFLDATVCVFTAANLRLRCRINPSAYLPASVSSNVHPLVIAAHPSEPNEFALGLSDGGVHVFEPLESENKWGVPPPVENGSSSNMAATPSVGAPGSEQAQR

GhNINJA = target: T4, GhNINJA (cotton); assay: yeast two hybrid
T4 chain: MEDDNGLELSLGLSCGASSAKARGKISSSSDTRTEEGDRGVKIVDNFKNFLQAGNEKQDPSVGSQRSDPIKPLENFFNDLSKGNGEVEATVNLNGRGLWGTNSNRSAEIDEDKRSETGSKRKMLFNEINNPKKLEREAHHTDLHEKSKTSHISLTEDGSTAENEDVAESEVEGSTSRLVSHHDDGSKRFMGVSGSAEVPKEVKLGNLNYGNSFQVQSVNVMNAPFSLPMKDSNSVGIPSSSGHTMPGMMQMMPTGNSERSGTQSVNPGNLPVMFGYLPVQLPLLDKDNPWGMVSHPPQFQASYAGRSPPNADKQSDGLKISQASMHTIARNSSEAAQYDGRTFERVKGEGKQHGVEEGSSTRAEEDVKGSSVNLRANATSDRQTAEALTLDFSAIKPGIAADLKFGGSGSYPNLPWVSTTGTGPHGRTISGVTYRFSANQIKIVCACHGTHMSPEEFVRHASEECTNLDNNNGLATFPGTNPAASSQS

GhHDA6 = target: T5, GhHDA6 (cotton); assay: yeast two hybrid
T5 chain: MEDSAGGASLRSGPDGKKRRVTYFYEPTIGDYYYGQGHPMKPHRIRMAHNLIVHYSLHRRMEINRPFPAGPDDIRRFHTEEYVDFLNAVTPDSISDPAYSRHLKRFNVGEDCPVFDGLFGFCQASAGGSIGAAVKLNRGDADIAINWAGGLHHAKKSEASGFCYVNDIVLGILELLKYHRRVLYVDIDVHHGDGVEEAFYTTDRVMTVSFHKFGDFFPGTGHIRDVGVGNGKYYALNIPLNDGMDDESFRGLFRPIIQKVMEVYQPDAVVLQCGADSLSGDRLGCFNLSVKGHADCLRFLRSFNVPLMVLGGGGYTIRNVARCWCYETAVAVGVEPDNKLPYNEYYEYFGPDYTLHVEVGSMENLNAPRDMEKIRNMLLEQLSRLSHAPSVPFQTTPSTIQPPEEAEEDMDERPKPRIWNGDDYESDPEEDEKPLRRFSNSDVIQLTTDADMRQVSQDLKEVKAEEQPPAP

c-Myc-150aa = target: T6, c-Myc-150aa (human, UniProt P01106 1-150); assay: luciferase complementation (FIG. 13 E)
T6 construct: Also tested by LUC, for which the construct is not described; also called first 150 amino acids truncated c-Myc

c-Myc-215aa = target: T7, c-Myc-215aa (human, UniProt P01106 1-215); assay: luciferase complementation (FIG. 13 E)
T7 construct: Also tested by LUC, for which the construct is not described

GhMYC2 = GhMYC2 (cotton); assay: luciferase complementation in tobacco leaves (FIG. 5B)
Protocol: The constructed plasmids were then transformed into Agrobacterium GV3101 (pSoup-p19) (Shanghai Weidi Company, Cat. No.: AC1003), and placed successively on ice for 5 min, in liquid nitrogen for 5 min, in water bath at 37° C. for 5 min, and on ice for 5 min, and then LB liquid medium was added for cultivation at 28° C. and 220 rpm for 2-3 h, followed by plating onto LB solid plates containing corresponding antibiotics (kanamycin+rifampicin) for cultivation at 28° C. for 2-3 days. Positive monoclonal clones were picked for cultivation after colonies grown out. The corresponding NLUC and CLUC vectors then were mixed and injected into tobacco leaves (1 day in the dark/1 day in the light). Luciferase substrates were applied at the infected leaves before taking images and placed in a dark room for at least 6 min to quench fluorescence, followed by observation on the Nightowl-II LB983 instrument, using IndigoBasic software under the luciferase-5 min setting conditions.

GhCOI1 = target: T8, GhCOI1 (cotton); assay: yeast two hybrid, JA-Ile in the medium
T8 chain: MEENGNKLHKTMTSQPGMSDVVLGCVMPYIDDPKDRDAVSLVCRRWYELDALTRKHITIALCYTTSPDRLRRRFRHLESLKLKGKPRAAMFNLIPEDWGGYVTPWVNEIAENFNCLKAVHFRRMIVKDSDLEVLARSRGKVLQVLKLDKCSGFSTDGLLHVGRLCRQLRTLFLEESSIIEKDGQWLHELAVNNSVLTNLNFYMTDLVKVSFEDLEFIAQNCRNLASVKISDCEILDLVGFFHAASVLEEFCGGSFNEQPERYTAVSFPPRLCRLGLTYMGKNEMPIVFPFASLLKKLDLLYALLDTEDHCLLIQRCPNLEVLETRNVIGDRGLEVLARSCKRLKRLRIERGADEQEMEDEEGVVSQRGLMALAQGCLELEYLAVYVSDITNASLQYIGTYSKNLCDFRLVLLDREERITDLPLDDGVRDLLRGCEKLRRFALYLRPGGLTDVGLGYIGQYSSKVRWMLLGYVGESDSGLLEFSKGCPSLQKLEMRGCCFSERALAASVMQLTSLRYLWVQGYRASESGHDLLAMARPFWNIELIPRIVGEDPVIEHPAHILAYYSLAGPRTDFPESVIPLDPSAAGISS
Protocol: The study on Arabidopsis had shown that the inhibition of JAZ protein on JA signaling was mainly achieved by inhibiting the transcription factor function of MYC, which had been experimentally verified by us in cotton. Based on the phylogenetic tree of Arabidopsis and cotton JAZs, we screened 6 cotton JAZs (GhJAZ1, GhJAZ7, GhJAZ9, GhJAZ10, GhJAZ11 and GhJAZ31), which were analyzed with GhMYC2, GhNINJA, GhTPL, GhHDA6, and GhCOI1 for yeast two hybrid. The amino acid sequence of GhJAZ1 was set forth in SEQ ID No. 4, and the corresponding encoding gene sequence was set forth in SEQ ID No. 39; the amino acid sequence of GhJAZ7 was set forth in SEQ ID No. 7, and the corresponding encoding gene sequence was set forth in SEQ ID No. 42; the amino acid sequence of GhJAZ9 was set forth in SEQ ID No. 2, and the corresponding encoding gene sequence was set forth in SEQ ID No. 37; the amino acid sequence of GhJAZ10 was set forth in SEQ ID No. 3, and the corresponding encoding gene sequence was set forth in SEQ ID No. 38; the amino acid sequence of GhJAZ11 was set forth in SEQ ID No. 5, and the corresponding encoding gene sequence was set forth in SEQ ID No. 40; and the amino acid sequence of GhJAZ31 was set forth in SEQ ID No. 9, and the corresponding encoding gene sequence was set forth in SEQ ID No. 44. […]

c-Myc = target: T9, c-Myc (human, UniProt P01106 1-454, limits assumed); assay: luciferase complementation in tobacco leaves (FIG. 6F)
T9 construct: In pGADT7 (AD fusion) for yeast two hybrid, pCAMBIA-NLuc for LUC, pUC-SPYCE for BiFC; also called proto-oncogene c-Myc; full length of c-Myc
Text: Using the method of LUC experiment, c-Myc (NCBI accession number: NM_002467.6) was subcloned to pCAMBIA NLuc vector (Chen, H., et al. “Firefly Luciferase Complementation Imaging Assay for Protein-Protein Interactions in Plants.” Plant Physiology 146.2(2008):368-376.) between the KpnI and SalI cleavage sites, and GhJAZ1 (SEQ ID No. 39) was subcloned to pCAMBIA-CLuc vector (Chen, H., et al. “Firefly Luciferase Complementation Imaging Assay for Protein-Protein Interactions in Plants.” Plant Physiology 146.2(2008):368-376.) between the KpnI and SalI cleavage sites. The constructed recombinant plasmids verified to be positive by sequencing were transformed into Agrobacterium GV3101 (pSoup-p19) (Shanghai Weidi biology technology co., Ltd, Cat. No.: AC1003), which were co-transfected into tobacco leaves. 2-3 days after injection, the infected leaves coated with the fluorescent substrate were placed in a dark chamber of the instrument for at least 6 min before taking images to quench fluorescence, followed by observation on the Nightowl-II LB983 instrument, using IndigoBasic software under the luciferase-5 min setting conditions. Cultivation was performed after co-infection. If there is interaction, LUC luciferase is expressed, and luminescence is detected after substrate application. As shown in F in FIG. 6, GhJAZ1 interacts with c-Myc.

T9 sequence (P01106 whole entry, the tested form may be a part): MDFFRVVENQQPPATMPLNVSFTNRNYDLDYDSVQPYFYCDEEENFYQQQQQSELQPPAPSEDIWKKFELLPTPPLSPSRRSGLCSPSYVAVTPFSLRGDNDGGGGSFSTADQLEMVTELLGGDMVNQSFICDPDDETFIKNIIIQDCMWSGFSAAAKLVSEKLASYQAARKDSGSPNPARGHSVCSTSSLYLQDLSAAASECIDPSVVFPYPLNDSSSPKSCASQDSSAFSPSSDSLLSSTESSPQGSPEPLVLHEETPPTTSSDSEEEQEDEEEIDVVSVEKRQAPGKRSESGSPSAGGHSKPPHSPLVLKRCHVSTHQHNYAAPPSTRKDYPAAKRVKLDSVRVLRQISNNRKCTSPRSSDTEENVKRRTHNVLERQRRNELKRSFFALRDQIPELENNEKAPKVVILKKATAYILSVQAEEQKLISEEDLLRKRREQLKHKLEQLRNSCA
T7 sequence (P01106 1-215 limits assumed): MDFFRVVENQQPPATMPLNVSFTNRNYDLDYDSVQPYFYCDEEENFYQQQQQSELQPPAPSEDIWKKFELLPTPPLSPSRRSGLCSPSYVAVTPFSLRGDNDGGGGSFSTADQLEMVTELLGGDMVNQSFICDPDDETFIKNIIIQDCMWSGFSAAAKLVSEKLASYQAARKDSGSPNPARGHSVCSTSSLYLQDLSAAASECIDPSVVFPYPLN
Sequence of GhMYC2 (cotton) (chain, as listed by the source limits assumed): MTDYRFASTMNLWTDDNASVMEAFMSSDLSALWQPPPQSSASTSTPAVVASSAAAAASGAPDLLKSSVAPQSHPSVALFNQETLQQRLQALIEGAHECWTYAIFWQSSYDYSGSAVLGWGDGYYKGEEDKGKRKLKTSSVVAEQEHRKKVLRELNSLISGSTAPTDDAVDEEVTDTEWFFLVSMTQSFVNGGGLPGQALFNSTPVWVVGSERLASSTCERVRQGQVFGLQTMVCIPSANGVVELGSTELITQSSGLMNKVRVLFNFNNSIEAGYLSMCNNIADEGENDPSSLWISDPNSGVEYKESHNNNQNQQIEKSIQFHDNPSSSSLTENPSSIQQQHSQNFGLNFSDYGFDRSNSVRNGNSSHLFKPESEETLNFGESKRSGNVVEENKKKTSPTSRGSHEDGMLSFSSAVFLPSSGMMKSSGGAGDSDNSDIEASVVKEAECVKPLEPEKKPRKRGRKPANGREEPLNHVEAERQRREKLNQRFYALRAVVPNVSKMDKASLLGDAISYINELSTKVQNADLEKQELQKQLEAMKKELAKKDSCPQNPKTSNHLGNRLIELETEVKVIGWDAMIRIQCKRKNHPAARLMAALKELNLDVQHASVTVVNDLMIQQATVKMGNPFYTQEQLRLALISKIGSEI
T6 sequence (P01106 1-150 limits assumed): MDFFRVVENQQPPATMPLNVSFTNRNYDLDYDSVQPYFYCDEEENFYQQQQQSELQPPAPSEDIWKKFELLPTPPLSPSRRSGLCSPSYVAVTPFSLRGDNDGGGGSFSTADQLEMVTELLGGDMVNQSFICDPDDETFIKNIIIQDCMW
T2 sequence (Q03405 other isoform, or with tags, fused parts or gaps limits assumed): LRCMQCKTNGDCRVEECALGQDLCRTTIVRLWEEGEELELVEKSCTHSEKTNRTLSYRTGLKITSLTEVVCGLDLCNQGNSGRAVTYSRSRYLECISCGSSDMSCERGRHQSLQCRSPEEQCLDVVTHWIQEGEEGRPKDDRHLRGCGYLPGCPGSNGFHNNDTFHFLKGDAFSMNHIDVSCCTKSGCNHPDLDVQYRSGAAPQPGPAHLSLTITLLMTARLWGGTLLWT

B1: GhJAZ1 (other)
chain: MSSCSESTAMKPARSPEKPSFAQTCNLLSQYLKEKGSFGDLSLGMTCNVEANGTPVVPPPTMNLFPLNDKSDDVCGRNGGNPKNLTSMDLFPQQAGLASKDDSPNKLEPQTAPMTIFYGGQVIVFNDFPANKAKEIMLLASNSSSQSNNSFNPIPFTSSIARSPIESSIGVPPTSKPVHPAQRAVPGDLPIARRASLHRFLEKRKDRITAKAPYQINNSAAAPSLSGDNKSWLGLAAQSP
notes: In yeast two hybrid it was expressed from pGBKT7 (BD fusion), in the luciferase experiment from pCAMBIA-CLuc, in BiFC from pUC-SPYNE; also called cotton JAZ1
binding result (NMYC): binds
binding result (uPAR-D1D2): no binding
binding result (GhTPL): binds
binding result (GhNINJA): binds
binding result (GhHDA6): binds
binding result (c-Myc-150aa): binds
binding result (c-Myc-215aa): binds
binding result (GhMYC2): binds
binding result (GhCOI1): binds
binding result (c-Myc): binds
